In patent US20050196806A1, “Prostate specific antigen oligoepitope peptide” (The Government of the USA, as represented by the Secretary, …, priority 1996, published 2005):

How the values were obtained:
human HLA A2 molecules = target: T1, human HLA A2 molecules (Homo sapiens, UniProt P04439, D140Y/D185E/D98H/E176V/E277Q/G131W/G231S/I119V/I121R/I166T/I218V/L300P/L318F/N151K/N90K/P208A/P217A/Q86G/Q94H/R138H/R169H/T345S); assay: T2 cell binding assay (PSA peptide binding assay, Example II); details: peptides at 50 μg/ml, None = 127.25
T1 construct: endogenous in cells; host or cells: T2 cells (174CEM.T2)
Source text: The amino acid sequence of human PSA was scanned using a predictive algorithm that combines a search for anchor residues with numerical assignments to all residues at all positions. The T2 cell binding assay was then used to determine which peptides bound human HLA A2 molecules. […] Table 7 gives the amino acid sequence of these peptides and compares them to corresponding sequences of HGK and PKA.

[1] = system: PBMC from normal healthy donors expressing the HLA A2 class 1 allele; assay: Establishment of human T cell lines by pulsing PBMC with peptide and IL-2; assay type: cell-based; details: donors with T cell line / donors tested; PBMC pulsed with peptide and IL-2
Source text: Cytotoxic T-cells specific for PSA can be established from peripheral blood mononuclear cells (PBMC) obtained from a host immunized as discussed above. For example, PBMC can be separated by using Lymphocyte Separation Medium gradient (Organon Teknika, Durham, N.C., USA) as previously described [Boyum et al, Scand J. Clin Lab Invest 21:77-80 (1968)]. Washed PBMC are resuspended in a complete medium, for example, RPMI 1640 (GIBCO) supplemented with 10% pool human AB serum (Pel-Freeze Clinical System, Brown Dear, Wisc., USA), 2 mM glutamine, 100 U/ml penicillin and 100 μg/ml of streptomycin (GIBCO). PBMC at a concentration of about 2×10^5 cells in complete medium in a volume of, for example 100 μl are added into each well of a 96-well flat-bottom assay plate (Costar, Cambridge, Mass., USA). The antigen or peptides are added into the cultures in a final concentration of about 50 μg/ml and incubated at 37° C. in a humidified atmosphere containing 5% CO2 for 5 days. After removal of peptide containing media, the cultures are provided with fresh human IL-2 (10 U/ml) after 5 days and replenished with IL-2 containing medium every 3 days. Primary cultures are restimulated with the same peptide (50 μg/ml) on day 16. 5×10^5 irradiated (4,000 rad) autologous PBMC are added in a volume of about 50 μl complete medium as antigen-presenting cells (APC). […]

## FLTPKKLQCV [PSA-1, ID No. 1]
Human HLA A2 molecules; listed as 141-150
  MAb A2, 69: Mean channel fluorescent intensity: positive
Human HLA A2 molecules; listed as PSA 141-150
  MAb A2, 69: Mean channel fluorescent intensity: 230.34
[1]
  T cell lines established from normal donors: 5/6
